Experimental data: publication PMC8479475

Tests used:
[1] = biological target: Labeled bovine β-cardiac heavy meromyosin (HMM) carrying EDANS- and dabcyl-labeled regulatory light chain (bovine) (UniProt P85100); experiment: FRET or BRET; time-resolved FRET as in a2 with mavacamten (dose-response) and 2 mM magnesium ATP, incubated 10 min; 5 μM labeled HMM; head-head interaction within the molecule
[2] = biological target: Labeled bovine β-cardiac heavy meromyosin (HMM) carrying EDANS- and dabcyl-labeled regulatory light chain (bovine) (UniProt P85100); experiment: FRET or BRET; time-resolved FRET between EDANS- and dabcyl-labeled RLC (1:3) on the two heads of one HMM dimer; head-head interaction within the molecule (interacting-heads motif), not between HMM molecules; in solution, no cross-linker
[3] = biological target: Labeled bovine β-cardiac heavy meromyosin (HMM) carrying EDANS- and dabcyl-labeled regulatory light chain (bovine) (UniProt P85100); experiment: FRET or BRET + cross-linking; time-resolved FRET as in a2 after cross-linking: 5 μM HMM in 10 mM MOPS, 30 mM KCl, 2 mM MgATP, 1 mM DTT, pH 7.5, 0.1% glutaraldehyde for 1 min, quenched with 100 mM Tris pH 7.5; head-head interaction within the molecule

Labeled bovine β-cardiac heavy meromyosin (HMM) carrying EDANS- and dabcyl-labeled regulatory light chain (from UniProt P85100 1-199; Q3SZE5 1-166) (complex)
increase in the population participating in FRET with mavacamten (head-head interaction within the dimer) [1]: 4%
percent of molecules in the interacting-heads motif (head-head interaction within the dimer) [2]: 43%
fraction participating in FRET after glutaraldehyde (head-head interaction within the dimer) [3]: 74%
